1 molecule from patent US20210379147A1, “METHOD AND SYSTEM FOR TREATING CANCER UTILIZING TINAGL1” (The Trustees of Princeton University, priority 2018, published 2021) can be followed below.

For test [1], the target named is Integrin β1 (Homo sapiens, UniProt P05556). Put plainly: Co-immunoprecipitation of Tinagl1 / Tinagl1 mutants with integrin β1 subunit. The class given is binding. Conditions: LM2 cells with Tinagl1-HA stably expressed. As for the experimental part:
(§1) The functional domains of the Tinagl1 protein were mapped against EGFR, Integrin β1, and Integrin α5, and the results can be seen in Table 1, below. Specifically, it can be seen that the signal peptide (11) and Somatomedin B domain (12) are required to interact with EGFR, Integrin, and Integrin.
(§2) Immunoprecipitation (IP) and western blotting (WB) analysis. For an IP experiment, cells were collected in 1.5 ml EP tube when they reached to 100% confluency in 10 or 15 cm dish as indicated. 1 ml of IP lysis buffer (20 mM Tris pH7.4, 0.15 M NaCl, 1 mM EDTA, 1 mM EGTA, 1% Tx-100) with complete protease inhibitor cocktail (Roche, 14493900) was added and put on ice for 20 min. Meanwhile, culture media was 100× concentrated and mixed with the cell lysates. The samples were centrifuged, 100 μl of the supernatant was transferred to a new tube as input, and the rest was incubated with 2 μg of IgG, anti-HA, anti-Myc, anti-Integrin subunit β1, anti-Integrin subunit α5 or anti-EGFR (as indicated in each experiment) overnight at 4° C. (recombinant proteins may be added at this step as indicated in each experiment). 30 μL of protein A/G agarose beads (Santa Cruz, sc-2003) was then added in each sample for another 2 hours at 4° C. the next day. The beads were then washed for 5 times with IP lysis buffer. […] The IP samples were washed with PBS and analyzed with WB. […]

The target in test [2] is EGFR (Homo sapiens, UniProt P00533). The test can be described thus: Co-immunoprecipitation of Tinagl1 / Tinagl1 mutants with EGFR. Type of test: binding. Conditions: LM2 cells with Tinagl1-HA stably expressed. As for the experimental part: as §1, §2
The target of test [3] is T1, integrin av subunit (Homo sapiens, UniProt P05556+P06756).
T1 construct: endogenous in cells; host or cells: LM2 cells stably expressing Tinagl1-HA
Put plainly: Co-immunoprecipitation of Tinagl1 with integrin av subunit. Type of test: binding. Conditions: LM2 cells expressing Tinagl1-HA. As for the experimental part:
FIGS. 9A and 9B FIGS. 8E and 8F are images of WB analyses where LM2 cells expressing Tinagl1-HA stably were lysed and IP with IgG or anti-HA antibodies, then the IP samples were subjected to WB analysis with indicated antibodies to detect the interaction with integrin α5 subunit (9A) and integrin av subunit (9B).
as §2

Test [4] has as its system FN interaction with integrin subunits β1, α5, and αv. Put plainly: Competition IP between Tinagl1, FN and integrin subunits. The class given is binding.
Test [5] deals with FAK. The test can be described thus: FN- or EGF-dependent FAK phosphorylation (WB). The class given is cell-based. An excerpt:
For WB analysis, cells were collected and lysed with IP lysis buffer described above. After boiled with SDS laemmli buffer, the samples were resolved with SDS-PAGE gel and immunoblotted with standard protocols.
FN is the major ligand for integrin α5β1 and αvβ1, and triggers integrin/FAK signal pathway after binding. FN was employed to evaluate the effects of Tinagl1 on the integrin/FAK pathway. […] Likewise, the activation of FAK by FN was attenuated in the cells overexpressing Tinagl1.

The target in test [6] is FN (Homo sapiens, UniProt P02751). The test can be described thus: IP of Tinagl1-HA with FN. The class given is binding. Conditions: IP-Mass, IP/WB. The protocol: FIG. 15B is an image of WB analyses where 5 μg of FN was added into the lysate of HEK293T cells expressing Tinagl1-HA, then the lysate was immunoprecipitated with indicated antibodies, followed by WB analysis.

The target of test [7] is T2, EGF (Homo sapiens, UniProt P01133).
T2 construct: 5 μg of recombinant EGF (r-EGF) was added into the lysate
Put plainly: Co-immunoprecipitation of Tinagl1-HA with recombinant EGF. Type of test: binding. Conditions: 5 μg r-EGF added into lysate. As for the experimental part: FIG. 13A is an image of IP and WB assays where EK293T cells expressing Tinagl1-HA were lysed and 5 μg of recombinant EGF (r-EGF) was added into the lysate, which was then subjected to the assays.
Tinagl1 inhibits EGFR and integrin/FAK signaling pathways with distinct mechanisms. The interaction between EGFR and EGF causes conformational changes in EGFR, leading to EGFR dimerization, phosphorylation, and activation. Previous studies identified an EGFR antagonist, MIF, which competes with EGF for binding to EGFR and subsequently blocks its activation. Whether Tinagl1 inhibits EGFR activation in a similar manner was tested. […] Whether Tinagl1 and EGF compete with each other to interact with EGFR was tested. […] As a positive control, r-Tinagl1 competed with expressed Tinagl1-HA to interact with EGFR.

Test [8] has as its target T3, mutant integrin β1 subunit (β1-M) (Homo sapiens, UniProt P05556, DEL130-240).
T3 construct: host or cells: HEK293T
Put plainly: IP of Tinagl1-HA with mutant integrin β1 subunit. Type of test: binding. Conditions: HEK293T cells.

For test [9], the target named is Integrin α5 (Homo sapiens, UniProt P05556+P08648). Put plainly: Co-immunoprecipitation of Tinagl1 / Tinagl1 mutants with integrin α5 subunit. The class given is binding. Conditions: LM2 cells expressing Tinagl1-HA. As for the experimental part:
as §1, §2

Sequence of FN interaction with integrin subunits β1, α5, and αv (as listed by the source): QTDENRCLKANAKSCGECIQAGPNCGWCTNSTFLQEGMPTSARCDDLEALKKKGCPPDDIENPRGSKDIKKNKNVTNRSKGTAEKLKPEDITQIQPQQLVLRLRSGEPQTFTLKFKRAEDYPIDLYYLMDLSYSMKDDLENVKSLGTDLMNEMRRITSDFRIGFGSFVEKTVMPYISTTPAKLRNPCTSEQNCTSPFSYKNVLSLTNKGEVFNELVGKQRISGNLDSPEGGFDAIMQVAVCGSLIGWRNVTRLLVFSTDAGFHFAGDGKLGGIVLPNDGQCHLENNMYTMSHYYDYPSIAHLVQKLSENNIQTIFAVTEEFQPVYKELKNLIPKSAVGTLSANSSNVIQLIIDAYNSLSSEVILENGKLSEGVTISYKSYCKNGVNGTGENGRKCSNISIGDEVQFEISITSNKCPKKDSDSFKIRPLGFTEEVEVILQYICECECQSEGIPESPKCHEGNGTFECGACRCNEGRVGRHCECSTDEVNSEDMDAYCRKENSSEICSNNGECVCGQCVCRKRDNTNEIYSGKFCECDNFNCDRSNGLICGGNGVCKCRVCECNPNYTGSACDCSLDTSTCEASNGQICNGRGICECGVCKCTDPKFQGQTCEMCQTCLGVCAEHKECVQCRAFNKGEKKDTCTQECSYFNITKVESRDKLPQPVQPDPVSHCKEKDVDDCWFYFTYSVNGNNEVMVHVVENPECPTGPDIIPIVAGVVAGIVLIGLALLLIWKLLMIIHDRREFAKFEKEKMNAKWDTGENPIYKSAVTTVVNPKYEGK
Sequence of Integrin β1 (P05556 21-798): as the sequence (as listed by the source) above
Sequence of Integrin β1 (P08648 42-894 partner limits assumed): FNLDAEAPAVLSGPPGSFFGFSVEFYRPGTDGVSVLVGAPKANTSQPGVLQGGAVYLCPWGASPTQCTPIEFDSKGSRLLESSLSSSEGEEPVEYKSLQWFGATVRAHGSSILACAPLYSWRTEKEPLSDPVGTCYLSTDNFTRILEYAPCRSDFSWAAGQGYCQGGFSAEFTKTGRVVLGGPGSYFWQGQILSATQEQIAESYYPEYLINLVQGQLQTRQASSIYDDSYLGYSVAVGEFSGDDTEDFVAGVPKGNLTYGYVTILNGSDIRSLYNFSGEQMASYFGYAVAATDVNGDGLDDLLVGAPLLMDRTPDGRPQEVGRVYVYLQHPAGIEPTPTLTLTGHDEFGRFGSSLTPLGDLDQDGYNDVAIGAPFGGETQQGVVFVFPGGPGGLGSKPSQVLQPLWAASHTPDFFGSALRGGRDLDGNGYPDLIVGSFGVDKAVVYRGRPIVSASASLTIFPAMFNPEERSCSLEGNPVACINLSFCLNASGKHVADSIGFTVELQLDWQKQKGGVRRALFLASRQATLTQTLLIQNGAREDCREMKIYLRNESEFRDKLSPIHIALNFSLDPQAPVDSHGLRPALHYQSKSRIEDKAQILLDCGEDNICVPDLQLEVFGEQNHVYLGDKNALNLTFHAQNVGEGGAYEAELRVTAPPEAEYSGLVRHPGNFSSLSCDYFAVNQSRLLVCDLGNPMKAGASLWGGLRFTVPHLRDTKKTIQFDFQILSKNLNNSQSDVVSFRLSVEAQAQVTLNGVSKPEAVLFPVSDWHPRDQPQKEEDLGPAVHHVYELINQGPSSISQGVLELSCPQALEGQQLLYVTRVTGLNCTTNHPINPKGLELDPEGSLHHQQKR
Sequence of Integrin β1 (P08648 895-1049 partner limits assumed): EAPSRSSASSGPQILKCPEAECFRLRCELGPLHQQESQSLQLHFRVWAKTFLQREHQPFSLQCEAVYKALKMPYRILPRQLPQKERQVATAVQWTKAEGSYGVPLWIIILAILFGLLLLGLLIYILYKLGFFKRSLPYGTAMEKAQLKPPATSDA
T2 sequence (P01133 971-1023 limits assumed, species assumed): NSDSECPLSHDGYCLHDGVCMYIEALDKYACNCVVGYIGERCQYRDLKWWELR
Sequence of FN (P02751 32-2477): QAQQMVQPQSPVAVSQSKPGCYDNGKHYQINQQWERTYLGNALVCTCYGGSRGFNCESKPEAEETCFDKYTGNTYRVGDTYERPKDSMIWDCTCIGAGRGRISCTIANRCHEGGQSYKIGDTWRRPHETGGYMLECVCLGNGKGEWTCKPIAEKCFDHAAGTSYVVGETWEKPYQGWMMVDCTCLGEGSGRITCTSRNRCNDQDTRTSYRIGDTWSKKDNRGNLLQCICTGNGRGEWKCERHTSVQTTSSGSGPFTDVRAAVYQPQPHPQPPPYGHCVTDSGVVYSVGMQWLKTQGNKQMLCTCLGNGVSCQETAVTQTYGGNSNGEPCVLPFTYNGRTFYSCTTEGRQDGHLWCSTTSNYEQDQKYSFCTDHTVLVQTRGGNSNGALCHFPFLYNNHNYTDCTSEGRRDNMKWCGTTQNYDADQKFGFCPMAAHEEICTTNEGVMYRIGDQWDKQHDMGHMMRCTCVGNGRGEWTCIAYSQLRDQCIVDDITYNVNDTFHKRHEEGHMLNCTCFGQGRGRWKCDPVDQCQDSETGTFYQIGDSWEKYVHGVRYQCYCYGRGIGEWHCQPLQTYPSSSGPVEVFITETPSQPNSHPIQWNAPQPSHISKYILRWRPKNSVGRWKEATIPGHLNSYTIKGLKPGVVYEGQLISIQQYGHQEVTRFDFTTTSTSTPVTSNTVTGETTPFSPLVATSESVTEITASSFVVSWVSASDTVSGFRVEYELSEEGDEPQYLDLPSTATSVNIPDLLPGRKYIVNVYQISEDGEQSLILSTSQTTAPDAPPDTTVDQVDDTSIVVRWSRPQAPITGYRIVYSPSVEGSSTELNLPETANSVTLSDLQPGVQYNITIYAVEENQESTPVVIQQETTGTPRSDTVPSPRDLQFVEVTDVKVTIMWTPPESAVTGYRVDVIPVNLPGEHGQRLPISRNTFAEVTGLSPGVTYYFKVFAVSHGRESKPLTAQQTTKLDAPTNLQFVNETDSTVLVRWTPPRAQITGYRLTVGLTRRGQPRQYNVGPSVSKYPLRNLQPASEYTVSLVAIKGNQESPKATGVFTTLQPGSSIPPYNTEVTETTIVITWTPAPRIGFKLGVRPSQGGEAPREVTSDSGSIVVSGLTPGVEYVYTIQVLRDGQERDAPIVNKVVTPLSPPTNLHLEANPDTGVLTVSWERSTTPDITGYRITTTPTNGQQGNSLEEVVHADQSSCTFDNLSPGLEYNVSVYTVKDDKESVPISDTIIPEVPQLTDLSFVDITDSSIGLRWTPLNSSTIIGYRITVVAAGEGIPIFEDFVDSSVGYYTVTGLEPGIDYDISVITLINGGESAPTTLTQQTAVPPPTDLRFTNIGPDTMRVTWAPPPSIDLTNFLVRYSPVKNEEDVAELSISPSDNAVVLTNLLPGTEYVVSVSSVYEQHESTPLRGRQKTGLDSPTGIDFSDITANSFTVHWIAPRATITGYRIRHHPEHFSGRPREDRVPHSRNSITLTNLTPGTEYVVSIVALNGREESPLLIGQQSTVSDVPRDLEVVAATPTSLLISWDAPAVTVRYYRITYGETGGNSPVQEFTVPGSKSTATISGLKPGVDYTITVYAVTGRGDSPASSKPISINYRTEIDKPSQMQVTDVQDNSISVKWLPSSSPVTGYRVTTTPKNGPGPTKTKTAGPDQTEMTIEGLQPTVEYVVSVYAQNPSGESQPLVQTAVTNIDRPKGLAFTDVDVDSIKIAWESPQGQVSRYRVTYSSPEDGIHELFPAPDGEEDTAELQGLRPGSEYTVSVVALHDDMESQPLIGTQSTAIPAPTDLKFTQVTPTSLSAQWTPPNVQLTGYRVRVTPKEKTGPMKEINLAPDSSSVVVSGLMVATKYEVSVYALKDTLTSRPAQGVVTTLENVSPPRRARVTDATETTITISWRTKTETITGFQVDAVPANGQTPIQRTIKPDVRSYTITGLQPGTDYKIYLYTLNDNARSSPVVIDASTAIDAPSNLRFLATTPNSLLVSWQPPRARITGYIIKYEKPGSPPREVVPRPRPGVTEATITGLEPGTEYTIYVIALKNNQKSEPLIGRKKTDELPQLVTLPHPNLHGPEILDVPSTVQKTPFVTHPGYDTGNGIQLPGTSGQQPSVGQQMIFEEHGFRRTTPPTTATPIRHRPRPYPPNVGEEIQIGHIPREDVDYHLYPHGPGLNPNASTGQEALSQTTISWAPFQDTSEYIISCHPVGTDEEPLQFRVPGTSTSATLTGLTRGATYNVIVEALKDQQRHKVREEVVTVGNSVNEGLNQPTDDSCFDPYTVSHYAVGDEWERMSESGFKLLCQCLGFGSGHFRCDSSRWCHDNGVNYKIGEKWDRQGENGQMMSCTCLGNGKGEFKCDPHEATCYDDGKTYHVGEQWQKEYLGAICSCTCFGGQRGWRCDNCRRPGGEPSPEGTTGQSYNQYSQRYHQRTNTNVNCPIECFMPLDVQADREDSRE
Sequence of Integrin α5 (P08648 42-894 limits assumed): as the sequence (P08648 42-894 partner limits assumed) above
Sequence of Integrin α5 (P08648 895-1049 limits assumed): as the sequence (P08648 895-1049 partner limits assumed) above
Sequence of Integrin α5 (P05556 21-798): as the sequence (as listed by the source) above

B1: Tinagl1: Tubulointerstitial nephritis antigen like 1, secreted extracellular protein; in IP experiments expressed with C-terminal HA tag (protein, listed as Homo sapiens)
chain: MWRCPLGLLLLLPLAGHLALGAQQGRGRRELAPGLHLRGIRDAGGRYCQEQDLCCRGRADDCALPYLGAICYCDLFCNRTVSDCCPDFWDFCLGVPPPFPPIQGCMHGGRIYPVLGTYWDNCNRCTCQENRQWQCDQEPCLVDPDMIKAINQGNYGWQAGNHSAFWGMTLDEGIRYRLGTIRPSSSVMNMHEIYTVLNPGEVLPTAFEASEKWPNLIHEPLDQGNCAGSWAFSTAAVASDRVSIHSLGHMTPVLSPQNLLSCDTHQQQGCRGGRLDGAWWFLRRRGVVSDHCYPFSGRERDEAGPAPPCMMHSRAMGRGKRQATAHCPNSYVNNNDIYQVTPVYRLGSNDKEIMKELMENGPVQALMEVHEDFFLYKGGIYSHTPVSLGRPERYRRHGTHSVKITGWGEETLPDGRTLKYWTAANSWGPAWGERGHFRIVRGVNECDIESFVLGVWGRVGMEDMGHH
modifications: C-terminal HA tag in IP
notes: Tubulointerstitial nephritis antigen like 1, secreted extracellular protein; in IP experiments expressed with C-terminal HA tag
For the molecule B1, the “interaction with integrin β1 subunit (co-IP)” value in test [1] is reported as “confirmed the interaction”. Moreover, the “interaction with EGFR (co-IP)” value in test [2] is recorded as “confirmed the interaction”. Besides, in test [3], the “interaction with integrin av subunit (co-IP)” value was “strongly interacted”. The “interaction of subunits α5 or av with FN” value in [4] is “did not compete”. Besides, in [4] (tested at 1, 2.5, and 5 μg), the “interaction of FN with integrin β1 subunit” value is reported as “competitively reduced”. Further, in [5], the “EGF-induced FAK phosphorylation (Tyr925)” value is listed as “blocks this specific effect of EGF on FAK activation”. For the same molecule, the “interaction with FN” value in test [6] is given as “interacted with FN”. Further, the “interaction between Tinagl1 and EGF” value in [7] is recorded as “failed to detect any interaction”. Moreover, the “interaction with mutant β1 subunit (deletion of aa 130-240)” value in test [8] was “cannot interact”. The “interaction with integrin α5 subunit (co-IP)” value in test [9] is “strongly interacted”.
